Assay results published in patent US7179886B1, “Cloning and identification of the motilin receptor” (Merck & Co., Inc., priority 1999, dated 2007).
No end group written: not given here. *: point of attachment. 125I = [125I]*

Key:
[1] = target: T1, Cloned MTL-1A Receptor (human) (Homo sapiens, UniProt O43193); experiment: Aequorin bioluminescence assay in HEK-293/aeq17 cells transfected with MTL-R1A; format: cell-based; conditions: for EC50: HEK-293/aeq17 cells transfected with human MTL-R1A; for activity in MTL1-A functional and binding assays: high (10 μM) doses, statement covers functional and binding assays
T1 construct: The full length open reading frame appears to contain 412 amino acids; expressed in transfected cells; host or cells: HEK-293/aeq17 (293-AEQ17), transient transfection with lipofectamine
Description: A high-throughput assay was developed which measures Ca^2+realease with the bioluminescent Ca^2+sensitive-aequorin reporter protein (capable of measuring ligand-induced IP3-coupled mobilization of intracellular calcium and concomitant calcium-induced aequorin bioluminescence). […] The DNA and deduced amino acid sequence are given in SEQ. ID. NO.:2 and SEQ. ID. NO.:3, respectively.
To identify a ligand for this orphan GPCR and to determine whether the full length, 7 TM domain GPR38-A is a functional GPCR, a high-throughput assay was developed which measures Ca^2+ release with the bioluminescent Ca^2+ sensitive aequorin reporter protein (capable of measuring ligand-induced IP3-coupled mobilization of intracellular calcium and concomitant calcium-induced aequorin bioluminescence).
A broad set of peptide and non-peptide molecules was tested at a single concentration in transiently transfected HEK-293/aeq17 cells (100 nM peptide, 10 μM non-peptide).
The aequorin bioluminescence assay is a reliable test for identifying G protein-coupled receptors which couple through the Gα protein subunit family consisting of Gq and G11 which leads to the activation of phospholipase C, mobilization of intracellular calcium and activation of protein kinase C. Measurement of MTL-1A expression in the aequorin-expressing stable reporter cell line 293-AEQ17 (Button, D. et. al., 1993 Cell Calcium 14: p. 663–671.) was performed using a Luminoskan RT luminometer (Labsystems Inc., Gaithersburg, Md.).
293-AEQ17 cells (8×10^5 cells plated 18 hrs. before transfection in a T75 flask) were transfected with 22 μg of human MTL-R1A plasmid DNA: 264 μg lipofectamine. Following approximately 40 hours of expression the apo-aequorin in the cells was charged for 4 hours with coelenterazine (10 μM) under reducing conditions (300 μM reduced glutathione) in ECB buffer (140 mM NaCl, 20 mM KCl, 20 mM HEPES—NaOH [pH=7.4], 5 mM glucose, 1 mM MgCl2, 1 mM CaCl2, 0.1 mg/ml bovine serum albumin). The cells were harvested, washed once in ECB medium and resuspended to 500,000 cells/ml. 100 μl of cell suspension (corresponding to 5×10^4 cells) was then injected into the test plate, and the integrated light emission was recorded over 30 seconds, in 0.5 second units. 20 μL of lysis buffer (0.1% final Triton X-100 concentration) was then injected and the integrated light emission recorded over 10 seconds, in 0.5 second units. The “fractional response” values for each well were calculated by taking the ratio of the integrated response to the initial challenge to the total integrated luminescence including the Triton X-100 lysis response.

[2] = target: T1, Cloned MTL-1A Receptor (human); experiment: [^125I] human motilin binding to crude membranes from HEK-293/aeq17 cells transfected with MTL-R1A cDNA; conditions: for IC50: competition binding, crude membranes, 20° C. for 1 hr., read-out: [^125I] hmotilin binding (IC50)
Method: Crude cell membranes were prepared on ice, 48 hrs. post-transfection. […] Bound radioligand was separated by rapid vacuum filtration (Brandel 48-well cell harvester) through GF/C filters pretreated for 1 hr. with 0.5% polyethylenimine.

[3] = test system: cells that were not transfected with the MTL-R1A cDNA expression vector; experiment: Aequorin bioluminescence assay in non-transfected cells; format: cell-based, human; conditions: concentrations as high as 10 μM
[4] = target: T2, motilin receptor spliced form A (MTL-R1A), human (human, UniProt O43193 1-412); experiment: direct radioligand binding on cell membranes from transfected cells
T2 construct: Full-length 412 aa seven-transmembrane receptor, transiently expressed in HEK-293/aeq17 cells; also called MTL-1A; MTL1-A

[5] = target: T2, motilin receptor spliced form A …; experiment: cell-based or functional assay
[6] = target: T2, motilin receptor spliced form A …; experiment: displacement of [125I] human motilin from crude membranes of MTL-R1A transfected HEK-293/aeq17 cells
Method: Crude cell membranes were prepared on ice, 48 hrs. post-transfection. Each T-75 flask was washed twice with 10 ml of PBS, once with 1 ml homogenization buffer (50 mM Tris-HCl [pH 7.4], 10 mM MgCl_2. 10 ml of homogenization buffer was added to each flask, cells were removed by scraping and then homogenized using a Polytron device (Brinkmann, Syosset, N.Y.; 3 bursts of 10 sec. at setting 4). The homogenate was centrifuged for 20 min. at 11,000×g at 0° C. and the resulting crude membrane pellet (chiefly containing cell membranes and nuclei) was resuspended in homogenization buffer supplemented with 1.5% BSA (0.5 ml T75 flask) and kept on ice.
Bound radioligand was separated by rapid vacuum filtration (Brandel 48-well cell harvester) through GF/C filters pretreated for 1 hr. with 0.5% polyethylenimine. After application of the membrane suspension to the filter, the filters were washed 3 times with 3 ml each of ice-cold 50 mM Tris-HCl [pH 7.4], 10 mM MgCl_2, and the bound radioactivity on the filters was quantitated by gamma counting. […] Competition binding data were analyzed by a non-linear curve-fitting program (Prism V, version 2.0; GraphPad Software, San Diego, Calif.).

[7] = target: T2, motilin receptor spliced form A …; experiment: cell-based or functional assay; remark: listed apart in the source

T1 sequence (O43193 whole entry): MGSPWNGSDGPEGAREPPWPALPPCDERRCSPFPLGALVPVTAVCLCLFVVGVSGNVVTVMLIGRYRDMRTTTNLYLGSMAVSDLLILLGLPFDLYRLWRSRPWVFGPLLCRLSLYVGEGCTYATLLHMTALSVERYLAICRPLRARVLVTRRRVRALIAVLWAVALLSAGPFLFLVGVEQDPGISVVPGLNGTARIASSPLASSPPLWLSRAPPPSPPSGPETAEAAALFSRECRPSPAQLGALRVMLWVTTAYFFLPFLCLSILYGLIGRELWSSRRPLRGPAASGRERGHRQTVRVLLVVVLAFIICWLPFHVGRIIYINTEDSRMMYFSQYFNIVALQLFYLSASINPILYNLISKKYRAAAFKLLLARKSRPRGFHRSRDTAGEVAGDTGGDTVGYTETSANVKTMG
T2 sequence (O43193 whole entry, canonical isoform): as the sequence (O43193 whole entry) above

With `COc1cc(N)c(Cl)cc1C(=O)NC1CCN(CCCOc2ccc(F)cc2)CC1OC` (centres unmarked) [cisapride] the EC50 [1] was over 10000 nM, the “activity in MTL1-A functional and binding assays” value [1] was “inactive” and the IC50 [2] was over 10000 nM.

`CC[C@H]1OC(=O)[C@H](C)[C@@H](O[C@H]2C[C@@](C)(OC)[C@@H](O)[C@H](C)O2)[C@H](C)[C@@H](O[C@@H]2O[C@H](C)C[C@H](N(C)C)[C@H]2O)[C@](C)(O)C[C@@H](C)/C(=N\OCOCCOC)[C@H](C)[C@@H](O)[C@]1(C)O` [roxithromycin] was tested, and the EC50 [1] was 1950 nM and the IC50 [2] was 613 nM.

With `CC[C@H](C)[C@H](NC(=O)[C@@H]1CCCN1C(=O)[C@@H](NC(=O)[C@@H](N)Cc1ccccc1)C(C)C)C(=O)N[C@@H](Cc1ccccc1)C(=O)N[C@H](C(=O)N[C@@H](Cc1ccc(O)cc1)C(=O)NCC(=O)N[C@@H](CCC(=O)O)C(=O)N[C@@H](CC(C)C)C(=O)N[C@@H](CCC(N)=O)C(=O)N[C@@H](CCCNC(=N)N)C(=O)N[C@@H](CCSC)C(=O)N[C@@H](CCC(N)=O)C(=O)N[C@@H](CCC(=O)O)C(=O)N[C@@H](CCCCN)C(=O)N[C@@H](CCC(=O)O)C(=O)N[C@@H](CCCNC(=N)N)C(=O)N[C@@H](CC(N)=O)C(=O)N[C@@H](CCCCN)C(=O)NCC(=O)N[C@@H](CCC(N)=O)C(=O)O)[C@@H](C)O` [human motilin] the “bioluminescent response in non-transfected cells” value [3] was “no bioluminescent response above background levels”.

In the case of `CCN(CC)CCNC(=O)c1cc(Cl)c(N)cc1OC` [metoclopramide], the EC50 [1] is reported as over 10000 nM, the “activity in MTL1-A functional and binding assays” value [1] is reported as “inactive” and the IC50 [2] is reported as over 10000 nM.

With `Nc1nc2c(ncn2[C@@H]2O[C@H](COP(=O)(O)OP(=O)(O)OP(O)(O)=S)[C@@H](O)[C@H]2O)c(=O)[nH]1` [GTPγS] the “inhibition of [^125I] human motilin binding” value ([2]; 100 nM GTPγS) was over 80%.

Work on FVPIFTHSELQKIREKERNKGQ [canine motilin] yielded an IC50 [2] of 0.2 nM.

B1: [125I]-Tyr7-human motilin (peptide, UniProt P12872 26-47, looked up)
peptide: FVPIFTY(125I)GELQRMQEKERNKGQ
notes: mature
In the case of B1, the Kd [4] is reported as 0.1 nM.

B2: Leu13 MTL (peptide, UniProt P12872 26-47, looked up)
peptide: FVPIFTYGELQRLQEKERNKGQ
notes: mature; Position 13 counts on the mature peptide, not on the precursor
In the case of B2, the “Aequorin Assay (EC50 nM)” value [5] is reported as 3.9 nM and the IC50 [6] is reported as 0.2 nM.

B3: 1-11 MTL (peptide, UniProt P12872 26-36, looked up)
peptide: FVPIFTYGELQ
notes: range 1-11; The range counts on mature motilin, not on the precursor entry
B3 was tested, and the “Aequorin Assay (EC50 nM)” value [5] was 138 nM and the IC50 [6] was 127 nM.

B4: 1-12 MTL (peptide, UniProt P12872 26-37, looked up)
peptide: FVPIFTYGELQR
notes: range 1-12; The range counts on mature motilin, not on the precursor entry
In the case of B4, the “Aequorin Assay (EC50 nM)” value [5] is reported as 72 nM and the IC50 [6] is reported as 14 nM.

B5: canine motilin (peptide, UniProt P19863 1-22, looked up)
peptide: FVPIFTHSELQKIREKERNKGQ
For B5, the “Aequorin Assay (EC50 nM)” value [5] was 4.4 nM.

B6: 10-22 MTL (peptide, UniProt P12872 35-47, looked up)
peptide: LQRMQEKERNKGQ
notes: range 10-22; The range counts on mature motilin, not on the precursor entry
B6 was tested, and the “Aequorin Assay (EC50 nM)” value [5] was over 10000 nM and the IC50 [6] was 1100 nM.

B7: 1-13 MTL (peptide, UniProt P12872 26-38, looked up)
peptide: FVPIFTYGELQRM
notes: range 1-13; The range counts on mature motilin, not on the precursor entry
In the case of B7, the “Aequorin Assay (EC50 nM)” value [5] is reported as 3.8 nM and the IC50 [6] is reported as 0.9 nM.

B8: human motilin (peptide, UniProt P12872 26-47, looked up)
peptide: FVPIFTYGELQRMQEKERNKGQ
With B8 the “bioluminescent response (aequorin assay, 100 nM peptide, transfected HEK-293/aeq17 cells)” value [7] was over 4 fold over background.

B9: 1-19 MTL (peptide, UniProt P12872 26-44, looked up)
peptide: FVPIFTYGELQRMQEKERN
notes: range 1-19; The range counts on mature motilin, not on the precursor entry
With B9 the “Aequorin Assay (EC50 nM)” value [5] was 4.1 nM and the IC50 [6] was 0.3 nM.
